Ends that are not written are not given here.
What was measured:
[1] = molecular target: T1, His6-tagged human KRas Isoform 4B (residues 1-169) (human, UniProt P01116-2 1-169); test: barcoded rapid assay microchip, fitted curves of FIG. 6B (Hill coefficient 1), triplicate
T1 construct: Expressed in E. coli BL21(DE3), purified on Ni-NTA; also called KRas protein; WT KRas protein; not shown: His6 tag from the PQE80 vector

[2] = molecular target: T1, His6-tagged human KRas Isoform 4B …; test: B-RAP immunofluorescence, 10 µM KRas well, pixel-by-pixel along the barcode lane
[3] = molecular target: T1, His6-tagged human KRas Isoform 4B …; test: B-RAP surface immunofluorescence assay; ligand on barcode via SAC-DNA, KRas titrated 0-400 µM
Protocol: After extraction the data is background corrected. The background signal arises from (a) non-specific binding of the primary and secondary antibodies (independent of [KRas]), but can vary across different barcode stripes), and (b) non-specific binding of KRas protein ([KRas] dependent). Background (a) was assessed by measuring the average signal in the null protein well for each stripe. Background (b) was assessed by measuring the average fluorescence for the dummy ligand (Biotin* probe) that was in each well. The background subtracted data was then graphed in Graphpad Prism 7 and fitted to a sigmoidal curve (Hill coefficient=1).
A pre-fabricated PDMS template was aligned onto the DNA barcode microchip, and the microchip was taped into a 10 cm petri dish. The wells on the platform were wet with 50 μL PBST before filling with blocking buffer and placing into a 37° C. incubator for 1 hr. Concurrently, 40 μL 1% BSA in PBS solutions containing 750 nM of a SAC-DNA conjugate and 3.75 μM of one biotinylated PCC ligand or biotin-A₂₀-Cy3 blank were prepared for each SAC-DNA conjugate. The biotinylated ligands were allowed to complex with the SAC protein for one hour before pooling the SAC-DNA-ligand solutions (final [SAC-DNA-ligand conjugates]=50 nM). The blocking buffer was aspirated and each well was loaded with the SAC-DNA-ligand conjugates cocktail for hybridization with the DNA barcode at 37° C. for one hour. The wells were washed with PBST (3×) before loading serially diluted solutions of KRas protein in protein buffer (0 to 400 μM). After shaking at RT for one hour, the wells were rinsed with PBST (5×), making sure to pipet up/down with the first addition of PB ST. A (100:1) dilution of CST rabbit anti-Ras Ab (#39655) in 1° ab buffer was added to each well before shaking at RT for one hour. After rinsing the wells with PBST (3×), the wells were loaded with a (200:1) dilution of Abcam goat anti-rabbit-Alexafluor 647 linked ab (ab150079) in 2° ab buffer before shaking at RT for one hour. A final rinse of the wells with PBST (3×) proceeded peeling off the PDMS slab from the barcode microchip and dipping the barcode into the following solutions: PBS, (1:1) PBS: MQ H₂O, MQ H₂O (2×). After being spun dry, the barcode was read on the Genepix (635 nm, PMT 600, PWR 40% (60 W); 532 nm, PMT 450, PWR 15% (23 W)).

[4] = molecular target: T1, His6-tagged human KRas Isoform 4B …; test: multi-well sandwich ELISA; ligand on Neutravidin plate, KRas 0-300 µM; footnote b: poorly resolved
Protocol: (§1) A 96-well Pierce Neutravidin Plate was washed with binding buffer (3×5 minutes at RT) before loading plate with a 1 μM solution of either blank (biotin-PEG₅-NHAc) (singly) or biotinylated PCC ligand (in triplicate). The plate incubated for two hours before washing with binding buffer (3×5 minutes). Blocking buffer was added to each well and the plate blocked for one hour before undergoing washing with binding buffer (3×5 minutes). Each well was loaded with either binding buffer or KRas solution (0→300 μM), and the plate was incubated for 30 minutes. Plate washing with binding buffer (3×5 minutes) preceded incubating the plate with a (1000:1) dilution of 1° antibody (ab) rabbit anti-Ras (CST #3965) in ab buffer for thirty minutes. The plate was washed with binding buffer (3×5 minutes), loaded with a (2000:1) dilution of 2° ab goat anti-rabbit, HRP-linked ab (CST #7074) in ab buffer, and incubated for an additional thirty minutes. The plate was rinsed with binding buffer (3×5 minutes), TBS (1×5 minutes), loaded with a (1:1) mixture of TMB Peroxidase Solution and TMB Peroxidase Solution B, and developed with occasional agitation for 8-12 minutes. After quenching the enzymatic reaction with 1M H₂SO_{4(aq)} (100 μL) the plate was read at λ=450 nm within ten minutes. The data was double background corrected using the ab only absorbance and the dummy ligand absorbance, plotted using Prism GraphPad 7 (Sigmoidal 4PL mode with the Hill coefficient set=1), and an EC₅₀ value was calculated.

[5] = molecular target: T1, His6-tagged human KRas Isoform 4B …; test: multi-well sandwich ELISA; ligand on Neutravidin plate, KRas 0-300 µM
Protocol: as §1

[6] = molecular target: T1, His6-tagged human KRas Isoform 4B …; test: cell-based or functional assay

B1: L4a (peptide)
peptide: VEVPY
modifications: triazole (positions not given here); not fully specified (bridges); also: 1,4-triazole macrocycle, ring places not given here, propargylglycine click handle, place not given here, biotinylated (biotin NovaTag resin), site not given here
notes: also called VEVPY f1
Work on B1 yielded an EC50 [1] of 19.6 µM.

B2: L6 (peptide)
peptide: VTVPY
modifications: triazole (positions not given here); not fully specified (bridges); also: macrocycle closed by 1,4-triazole, propargylglycine click handle, other ring residues not given here
notes: also called VTVPY
With B2 the “Avg F635 (full centroid)” value [2] was 17800, the “Avg F635 (full lane)” value [2] was 16000 and the “avg F635 (left part centroid)” value [2] was 15600. For the same binder, the “avg F635 (middle part centroid)” value [2] was 19400, the “avg F635 (right part centroid)” value [2] was 18500 and the EC50 [1] was 16 µM. For the same binder, the EC50 [3] was 18.9 µM and the EC50 [4] was 159 µM.

B3: L7b (peptide)
peptide: VQVPY
modifications: triazole (positions not given here); not fully specified (bridges); also: 1,4-triazole macrocycle, ring places not given here, propargylglycine click handle, place not given here, biotinylated (biotin NovaTag resin), site not given here
notes: also called VQVPY f2
With B3 the EC50 [5] was 44.2 µM and the EC50 [1] was 30.3 µM.

B4: L7a (peptide)
peptide: VQVPY
modifications: triazole (positions not given here); not fully specified (bridges); also: 1,4-triazole macrocycle, ring places not given here, propargylglycine click handle, place not given here, biotinylated (biotin NovaTag resin), site not given here
notes: also called VQVPY f1
B4 showed an EC50 [5] of 25.8 µM and an EC50 [1] of 31.5 µM.

B5: L2 (peptide)
peptide: EGVPV
modifications: triazole (positions not given here); not fully specified (bridges); also: macrocycle closed by 1,4-triazole, propargylglycine click handle, other ring residues not given here
notes: also called EGVPV
In the case of B5, the “IC50 of the intrinsic GTPase activity of KRas (GTPase-Glo, 10 µM KRas, four-hour incubation)” value [6] is reported as 24 µM, the “IC50 of the intrinsic GTPase enzymatic activity of KRas” value [6] is reported as ~20 µM and the EC50 [1] is reported as 8.19 µM. For the same binder, the EC50 [3] was 3.31 µM and the EC50 [4] was 33.2 µM.

B6: L8 (peptide)
peptide: TDNFY
modifications: triazole (positions not given here); not fully specified (bridges); also: macrocycle closed by 1,4-triazole, propargylglycine click handle, other ring residues not given here
notes: also called TDNFY
Binder B6 has an EC50 [5] of 25.6 µM, an EC50 [1] of 8.44 µM and an EC50 [3] of 2.8 µM.

B7: L1a (peptide)
peptide: HGIVG
modifications: triazole (positions not given here); not fully specified (bridges); also: 1,4-triazole macrocycle, ring places not given here, propargylglycine click handle, place not given here, biotinylated (biotin NovaTag resin), site not given here
notes: It is one of two HPLC fractions of the same mass; also called HGIVG f1
Binder B7 has an EC50 [1] of 16.2 µM, an EC50 [3] of 0.97 µM and an EC50 [4] of 1.65 µM.

B8: L4b (peptide)
peptide: VEVPY
modifications: triazole (positions not given here); not fully specified (bridges); also: 1,4-triazole macrocycle, ring places not given here, propargylglycine click handle, place not given here, biotinylated (biotin NovaTag resin), site not given here
notes: also called VEVPY f2
In the case of B8, the EC50 [1] is reported as 32.7 µM.

B9: L3a (peptide)
peptide: GEVVP
modifications: triazole (positions not given here); not fully specified (bridges); also: 1,4-triazole macrocycle, ring places not given here, propargylglycine click handle, place not given here, biotinylated (biotin NovaTag resin), site not given here
notes: also called GEVVP f1
B9 was tested, and the EC50 [5] was 7.78 µM and the EC50 [1] was 53.3 µM.

B10: L1b (peptide)
peptide: HGIVG
modifications: triazole (positions not given here); not fully specified (bridges); also: 1,4-triazole macrocycle, ring places not given here, propargylglycine click handle, place not given here, biotinylated (biotin NovaTag resin), site not given here
notes: Second HPLC fraction; also called HGIVG f2
For B10, the EC50 [1] was 12.2 µM, the EC50 [3] was 1.33 µM and the EC50 [4] was 0.76 µM.

B11: L5b (peptide)
peptide: VEVYP
modifications: triazole (positions not given here); not fully specified (bridges); also: 1,4-triazole macrocycle, ring places not given here, propargylglycine click handle, place not given here, biotinylated (biotin NovaTag resin), site not given here
notes: also called VEVYP f2
With B11 the EC50 [5] was 6.87 µM and the EC50 [3] was 7.8 µM.

B12: L5a (peptide)
peptide: VEVYP
modifications: triazole (positions not given here); not fully specified (bridges); also: 1,4-triazole macrocycle, ring places not given here, propargylglycine click handle, place not given here, biotinylated (biotin NovaTag resin), site not given here
notes: also called VEVYP f1
For B12, the EC50 [3] was 5.23 µM and the EC50 [4] was 3.72 µM.

B13: L3b (peptide)
peptide: GEVVP
modifications: triazole (positions not given here); not fully specified (bridges); also: 1,4-triazole macrocycle, ring places not given here, propargylglycine click handle, place not given here, biotinylated (biotin NovaTag resin), site not given here
notes: also called GEVVP f2
B13 showed an EC50 [1] of 19.4 µM.
